Measured values from publication PMC5828360 (PLoS ONE, 2018).
Bridges are numbered along the chain shown (N, C = ends). [ ]: non-standard residue; d: D form. The star is where a group is joined. Pen = CC(C)(S)[C@H](N)C(=O)O; Thz = O=C(O)[C@@H]1CSCN1; Propionyl = CCC(=O)*

B1: VH434 synthetic cyclic peptide (peptide)
peptide: Propionyl-CMPRLRGC-NH2
modifications: disulfide 1-8 (inferred)
notes: 8-residue truncation of VH411; source: synthetic peptide
B2: VH445 synthetic cyclic peptide (peptide)
peptide: Propionyl-[dC]MPRLRGC-NH2
modifications: disulfide 1-8
notes: printed cMPRLRGC, lower case c = (D)-Cys; also called VH0445; source: synthetic peptide

Target: T1, recombinant mouse LDLR (His-tagged), extracellular domain (mouse, UniProt P35951 22-790)
T1 construct: mouse low-density lipoprotein receptor, extracellular domain; immobilised on a NiHC sensor chip; in the functional rows it stands for the endogenous LDLR of the mouse; also called mLDLR; murine LDLR; source: bought: Sino Biological
T1 sequence (P35951 22-790): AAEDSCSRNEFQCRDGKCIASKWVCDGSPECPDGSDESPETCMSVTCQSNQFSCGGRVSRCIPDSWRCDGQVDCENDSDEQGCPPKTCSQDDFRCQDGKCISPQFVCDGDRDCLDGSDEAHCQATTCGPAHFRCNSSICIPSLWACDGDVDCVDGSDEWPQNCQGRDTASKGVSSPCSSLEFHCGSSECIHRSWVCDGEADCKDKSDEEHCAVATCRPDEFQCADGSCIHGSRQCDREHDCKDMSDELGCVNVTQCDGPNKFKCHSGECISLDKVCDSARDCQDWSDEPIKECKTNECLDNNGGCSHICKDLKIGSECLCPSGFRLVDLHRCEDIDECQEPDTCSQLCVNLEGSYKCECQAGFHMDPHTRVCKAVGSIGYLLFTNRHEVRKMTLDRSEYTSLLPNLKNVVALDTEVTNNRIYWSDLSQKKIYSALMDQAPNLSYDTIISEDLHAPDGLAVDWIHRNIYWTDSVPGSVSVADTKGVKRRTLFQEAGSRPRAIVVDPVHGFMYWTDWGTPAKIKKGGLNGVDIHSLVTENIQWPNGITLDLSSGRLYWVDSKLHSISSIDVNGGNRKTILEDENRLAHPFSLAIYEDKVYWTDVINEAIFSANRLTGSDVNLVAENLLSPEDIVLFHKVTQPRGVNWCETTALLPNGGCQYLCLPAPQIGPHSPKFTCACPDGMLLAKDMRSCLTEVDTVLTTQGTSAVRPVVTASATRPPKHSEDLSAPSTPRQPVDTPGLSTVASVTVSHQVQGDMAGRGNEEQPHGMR
Test: SPR; hLDLR or mLDLR (His-tagged) immobilised on a NiHC sensor chip at 35-60 fmol/mm^2; Biacore T200, 25°C; 50 mM HEPES-NaOH pH7.4, 150 mM NaCl, 0.005% Tween-20, 50μM EDTA; single-cycle kinetics; 1:1 Langmuir model
Conditions: both partners purified

Kd [nM] | Binder
280 ± 33 | B1
233 ± 24 | B2
36 ± 1 | Propionyl-[dC]M[Thz]RLRG[Pen]-NH2 (disulfide 1-8) [VH4127 synthetic cyclic peptide]
